# Test results published in US20220089784A1.
# B1: 19A9 scFv (scFv)
# scFv: EVQLQQPGSELARPGASVKLSCKASGYTFTSYPITWVKQTTGQGLEWIGEIYPRSGNTYYNEKFKGKATLTADKSSSTAYMELRSLTSEDSAVYFCARDYYDYAGGGRGYWGQGTTLTVSSVDLKSGGSTSGSGKPGSGEGSSGSARDIVLTQSPAIMSASPGGKITITCSASSSVSYMHWFQQKPGTSPKLWIYSTSNLASGVPARFSGSGSGTSYSLTISRMEAEDAATYYCQQRSSYPYTFGGGTKLEIK
# B2: 19B6 scFv (scFv)
# scFv: QVQLQQSGAELVKPGASVKISCKASGYTFTDNYINWVKQRPGQGLEWIGWIHPGSGNAKYNEKFRAKATLTVDTSSNTAYMQLSSLTSEDSAVYFCARVGFRVNFDYWGQGTTLTVSSVDLKSGGSTSGSGKPGSGEGSSGSARQIVLTQSPAIMSASPGEKVTMTCSASSSLSYVHWYQQKPGSSPKPWIYATSNLVSGVPARFSGSRSGTSYSLTISSMEAEDAATYYCQQWSSYPPTFGAGTKLEIK
# B3: 18D10 scFv (scFv)
# scFv: QVQLKQSGIEVMKPGASVKLSCKASGYPFTAYWIEWVKQRPGHGLEWIGEFLPGGISTNFNEKFKGKATFSADTSSNSAYIQLNSLTTEDSAIYYCVLTGTGFDYWGQGTSVTVSSVDLKSGGSTSGSGKPGSGEGSSGSARENVLTQSPAIMSASPGEKVTMTCSASSSVSYMHWYQQKSGTSPKRWIYDTSKLASGVPARFSGSGSGTSYSLTISSMEAEDAATYYCQQWSSNPLTFGAGTKLELK
# B4: 26E6 scFv (scFv)
# scFv: EVQLQQSGPELVKPGASVKISCKASGYTFADYYINWVKQSHGKSLEWIGDFNPNNGDHSYNQKFKDKATLTVDESSNTAYMELRSLTSEDSAVYYCTREFYYYFDVWGTGTTVTVSSVDLKSGGSTSGSGKPGSGEGSSGSARDIVMSQSPLSLPVSLGDQAFISCRFSQSIVHSNGNTYLEWYLQKPGQSPKLLIYKVSNRFSGVPDRFSGSGSGTDFTLKISRVEAEDLGVYYCFQGSHVPYTFGGGTKLEIK
# B5: 19D2 scFv (scFv)
# scFv: EVQLQQSGGELARPGSSVKLSCKASGYSFTGYSLTWVKQTPGQGLEWIGEIYPRSGNTYYNENFQGKATLTADESSSTAYMELRSLTSEDSAVYFCARDFYDYDGGGRGYWGQGTTLTVSSVDLKSGGSTSGSGKPGSGEGSSGSARDIVMTQTPAIMSASPGEKVTITCSASSSVSYMHWYQQKPGTSPKLWIYSTSNLASGVPARFSGSGSGTSYSLTISRMEAEDAATYYCQQRSSYPYTFGGGTKLEIK
# B6: 16B3 scFv (scFv)
# scFv: EVQLQQSGPELVKPGASVKITCKASGYTFTDNNMDWVKQSHGKSLEWIGDINPNNGGSIYNQKFKGKASLTLDKSSSTAYMELRSLTSEDTAVYYCARWGYYGSLAYWGQGTLVTVSSVDLKSGGSTSGSGKPGSGEGSSGSARQNVLTQSPAIMSASPGEKVTMTCSASSSVSSRYLHWYQQKSGASPKLWIYGTSNLASGVPARFSGSGSGTSYSLTISSVEAEDAATYYCQQYHSDPLTFGGGTKLEIK
# B7: 18A6 scFv (scFv)
# scFv: EVQLQQSGPELVKPGASVKISCKASGYTFTDNYINWVKQRPGQGLEWIGWIYPGSGNTKYNEKFKGKATLTVDTSSNTAYMQLTGLASDDSAVYFCARVNFYVSWDYWGQGTSVTVSSVDLKSGGSTSGSGKPGSGEGSSGSAREIVLTQSPAIMSASPGEKVTMTCSASSSISYMHWFQQKPGMSPKRRIFDTSKLASGVPARFSGSGSGTSYSLTISSMEAEDAGTYYCHQRSSYPFTFGGGTKLELK
# B8: 19D22 scFv (scFv)
# scFv: QIQLLQSGAELVRPGTSVKMSCKAAGYPFTSYWMGWVKQRPGHGLEWIGDIYPGGPYTNYNEKFKGKATLTADTSSSTAYMQFSSLTSEDSAIYYCALYGQVGSYAMDYWGQGTSVTVSSVDLKSGGSTSGSGKPGSGEGSSGSARQIVLTQSPAIMSASPGEKVTMTCSASSSVSYMYWYQQKPGSSPRLLIYDTSNLASGVPVRFSGSGSGTSYSLTISRMEAEDAATYYCQQWSSYPPITFGAGTKLEIK
# B9: 26B2 scFv (scFv)
# scFv: DVQLQESGPELVKPGASVKISCKASGYTFADYYINWVKQSHGKSLEWIGDFNPNNGDHSYNQKFKDKATLTVDESSNTAYMELRSLTSEDSAVYYCTREFYYYFDVWGTGTSVTVSSVDLKSGGSTSGSGKPGSGEGSSGSARDIEMTQTPAIMSASPGEKVTMTCSASSSVSSRYLHWYQQKSGASPKLWIYGTSNLASGVPARFSGSGSGTSYSLTISNVEAEDAATYYCQQYHSDPLTFGAGTKLEIK
# B10: 26D9 scFv (scFv)
# scFv: DVQLQESGAELVKPGASVKLSCKASGFTFTDYWMHWVKQRPGQGLEWIGMIHPYNGDNNYHEKFKSKATLTVDKSSSTAYMQLSSLTTEDSAVYYCVRNDYDPYYYALDYWGQGTSLTVSAVDLKSGGSTSGSGKPGSGEGSSGSARQIVLTQSPAIMSASPGEKVTMSCRASSSVSYVYWYQQKPGSSPKPWIYRTSNLASGVPVRFSGSGSGTSYSLTISRVEAEDAATYYCQQWSSYPPTFGGGTKLEIK
# B11: 18F2 scFv (scFv)
# scFv: EVQLQQSGPELMKPGASVKISCKASGYAFSRSWMNWVKQRPGKGLEWIGRIYPGDGDTNYNGKFKDKASLTADTSSSTAYMQLSSLTSEDSAVYFCTKSEGYYHNLGAYWGQGTTVTVSSVDLKSGGSTSGSGKPGSGEGSSGSAREIVLTQSPAIMSASPGQKVTITCSASSSVSYMHWYQQKSGTSPKRWIYDTSKLASGVPARFSGSGSGTSYSLIISSMEAEDAATYYCQQWRSNPPTFGGGTRLEIK
# B12: 26G5 scFv (scFv)
# scFv: EVQLQESGPGLAKPSQTLSLTCSVTGYSITSDYWNWIRKFPGNKLEYMGYISYSGSTYYNPSLKSRISITRDTSKNQYYLQLNSVTTEDTATYYCARSFYDGYLYFDYWGQGTTVTVSSVDLKSGGSTSGSGKPGSGEGSSGSAREIVLTQSPAILSASPGEKVTMTCSASSSVSYMYWYQQKPGSSPRLLIYDTSNLASGVPARFSGSGSGTSYSLTISRVEAEDAATYYCQQWSSYPPTFGDGTRLEIK
# B13: 18E5 scFv (scFv)
# scFv: EVQLQESGPELVKPGASVKISCKASGYTFTDHNMDWVKQSLGKSLEWIGDINPNNGGAVYNQNFKGKATLTVDKSSSTAYMELRSLTSEDTAVYYCARYGYYGYFDYWGQGTTLTVSSVDLKSGGSTSGSGKPGSGEGSSGSARQIVLTQSPAIMSASPGEKVTMTCRASSSVSSSYLHWYQQKPGSSPKLWIYSTSNLASGVPARFSGSGSGTSYSLTISSVEAEDAATYYCQQYDSSPSTFGAGTKLEIK
# B14: 8DC3 scFv (scFv, V domains shown)
# VH: QVQLVQSGGGLVKPGGSLRLSCAASGFTFSSHSMNWVRQAPGKGLEWVSSISSSSSYIYYADSVKGRFTISRDNSKNSLYLQLNSLRAEDTAVYYCARGDHDFRSGYYGMDVWGQGTMVTVSS
# VL: AELTQDPAVSVALGQTVRITCQGDSLRNYYASWYQQKPGQAPVLVIYGKNIRPSGIPDRFSGSSSGNTASLTITGAQAEDEADYYCNSRDSNGNHYVFGTGTKVTVL
# Molecular target: BoNT/B2 (Clostridium botulinum)
# Experiment: yeast scFv FACS
row,Binder,Kd [nM]
1,B1,0.88
2,B2,35.6
3,B3,5.57
4,B4,17.6
5,B5,1.85
6,B6,0.75
7,B7,32.4
8,B8,5
9,B9,5.43
10,B10,0.467
11,B11,8.75
12,B12,30.5
13,B13,2.66

# Molecular target: BoNT/B4 (Clostridium botulinum)
# Experiment: yeast scFv FACS
row,Binder,Kd [nM]
1,B1,1.04
2,B2,43.5
3,B3,4.2
4,B5,1.84
5,B6,0.71
6,B7,30.6
7,B8,5.24
8,B13,1.36

# Molecular target: BoNT/B3 (Clostridium botulinum)
# Experiment: yeast scFv FACS
row,Binder,Kd [nM]
1,B1,1.18
2,B2,866
3,B3,3.35
4,B5,1.47
5,B6,0.49
6,B7,27.9
7,B8,3.77
8,B13,2.56

# Molecular target: BoNT/C1 or other subtypes
# Experiment: yeast scFv FACS
row,Binder,Kd [nM]
1,B14,> 20
